Experimental data published in patent US20220072032A1 (AARHUS UNIVERSITET, published 2022).

B1: mAb 8H4 (rat hybridoma BNT-8H4-B8/C7-E11) (antibody, V domains shown)
VH: QVTLKESGPGILQPSQTLSLTCSFSGFSLSSSGICVSWIRQPSGKGLEWLATICWEDSKGYNPSLKNRLTISKDTSNNQALLRITSVDTADTAIYYCARVYYWYFDFWGPGTMVTVSS
VL: DIVMTQSPSLLSASVGDRVTLSCKGSQNINNYLAWYQQKLGEAPKLLIYNTNSLQTGIPSRFSGSGSGTDCTLTIRSLQPEDVATYFCYQYNNGNTFGGGTKLELK
notes: Rat monoclonal antibody, used as conditioned hybridoma medium
B2: mAb 5E11 (rat hybridoma BNT-5E11-D4/G1-E4) (antibody, V domains shown)
VH: EVQLQESGPGLVKPSQSLSLTCSVTGYTITSGYDWSWIRRFPGNTMEWMGDISYSGSTNYNPSLKSRVSITRDTSKNQFFLQLNSVTTGDTATYYCAKLPGWGQGTLVTVSS
VL: DVVLTQTPVFLSVTLGDQTSISCRSSQSLEYSDGYTYLEWYLQKPGQSPQLLIYEVSNRFSGVPDRFIGSGSGTDFTLKISRVEPEDLGVYYCFQGTHDPLTFGSGTKLEIK
notes: as for B1

What was measured:
[1] = molecular target: T1, PCSK9 mutant R93R96R97R104R105H139 (all mutated to alanine) (human, UniProt Q8NBP7 31-692, 35S metabolic label); test: immunoprecipitation of 35S-labelled PCSK9 mutant R93R96R97R104R105H139 (all to alanine) by mAb, autoradiography (16 h) [CONT.) H]
T1 construct: also called mutant PCSK9; 35S-mutant PCSK9
T1 sequence (Q8NBP7 other isoform, or with tags, fused parts or gaps mutant limits assumed): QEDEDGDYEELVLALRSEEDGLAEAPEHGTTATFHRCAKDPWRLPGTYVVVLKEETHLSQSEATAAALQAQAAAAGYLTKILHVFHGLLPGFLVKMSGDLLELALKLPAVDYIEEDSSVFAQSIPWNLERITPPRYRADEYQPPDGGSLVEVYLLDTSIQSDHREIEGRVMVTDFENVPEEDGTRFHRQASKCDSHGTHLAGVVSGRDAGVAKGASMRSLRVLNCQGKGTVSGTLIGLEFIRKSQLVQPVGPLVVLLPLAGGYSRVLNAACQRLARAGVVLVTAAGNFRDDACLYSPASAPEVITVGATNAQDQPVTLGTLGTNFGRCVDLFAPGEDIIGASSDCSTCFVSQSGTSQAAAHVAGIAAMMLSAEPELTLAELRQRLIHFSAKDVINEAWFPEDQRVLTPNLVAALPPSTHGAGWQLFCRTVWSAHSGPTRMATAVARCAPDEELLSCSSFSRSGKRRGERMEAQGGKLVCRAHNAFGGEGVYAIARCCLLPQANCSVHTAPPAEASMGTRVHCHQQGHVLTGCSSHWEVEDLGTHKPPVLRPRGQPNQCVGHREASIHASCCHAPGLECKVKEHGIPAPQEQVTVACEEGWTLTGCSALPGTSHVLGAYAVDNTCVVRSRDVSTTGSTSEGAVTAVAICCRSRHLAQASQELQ

[2] = molecular target: Wild type human PCSK9 (proprotein convertase subtilisin-like/kexin type 9) (human, UniProt Q8NBP7 31-692, 35S metabolic label in the immunoprecipitations); test: cell-based or functional assay
Sequence of Wild type human PCSK9 (proprotein convertase subtilisin-like/kexin type 9) (Q8NBP7 31-692 limits assumed): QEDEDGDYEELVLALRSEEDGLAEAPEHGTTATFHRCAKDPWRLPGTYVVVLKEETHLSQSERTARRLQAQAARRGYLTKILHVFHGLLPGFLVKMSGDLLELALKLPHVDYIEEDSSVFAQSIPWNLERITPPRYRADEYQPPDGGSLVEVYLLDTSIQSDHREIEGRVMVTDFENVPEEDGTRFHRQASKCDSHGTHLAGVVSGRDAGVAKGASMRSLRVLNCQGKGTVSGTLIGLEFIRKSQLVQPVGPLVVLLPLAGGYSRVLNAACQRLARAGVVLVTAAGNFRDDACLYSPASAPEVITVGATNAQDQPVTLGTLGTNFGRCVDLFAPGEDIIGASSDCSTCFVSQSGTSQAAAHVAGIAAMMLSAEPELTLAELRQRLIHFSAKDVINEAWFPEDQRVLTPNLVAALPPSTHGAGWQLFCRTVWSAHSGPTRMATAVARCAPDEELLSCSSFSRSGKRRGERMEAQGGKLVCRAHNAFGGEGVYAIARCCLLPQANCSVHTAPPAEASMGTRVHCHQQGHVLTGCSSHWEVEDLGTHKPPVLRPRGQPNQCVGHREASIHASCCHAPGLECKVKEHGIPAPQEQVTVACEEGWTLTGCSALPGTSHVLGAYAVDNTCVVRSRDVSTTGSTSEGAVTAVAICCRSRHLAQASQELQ

R93R104R105H139 = molecular target: T2, R93R104R105H139 (35S metabolic label); test: immunoprecipitation of 35S-labelled PCSK9 WT and alanine variants, autoradiography [CONT.) I]
T2 construct: also called 35S PCSK9 variant R93R104R105H139
T2 sequence (PCSK9, as listed by the source limits assumed): as the sequence (Q8NBP7 31-692 limits assumed) above, with R63A, R74A, R75A, H109A counted along it

[3] = molecular target: T3, PCSK9 mutant R104R105 (alanine substitutions) (human, UniProt Q8NBP7 31-692, 35S metabolic label); test: as above
T3 construct: also called variant R104R105
T3 sequence (Q8NBP7 other isoform, or with tags, fused parts or gaps mutant limits assumed): as the sequence (Q8NBP7 31-692 limits assumed) above, with R74A, R75A counted along it

[4] = molecular target: T4, PCSK9 mutant R96R97 (alanine substitutions) (human, UniProt Q8NBP7 31-692, 35S metabolic label); test: as above
T4 construct: also called variant R96R97
T4 sequence (Q8NBP7 other isoform, or with tags, fused parts or gaps mutant limits assumed): as the sequence (Q8NBP7 31-692 limits assumed) above, with R66A, R67A counted along it

Row | Binder | binding result [1] | cellular levels of LDLR in HepG2 cells (Western blot) [2] [fold] | binding result (R93R104R105H139) | binding result [3] | binding result [4]
1 | B1 | no binding (tested: 500 µl conditioned hybridoma medium) | ~2 |  |  | 
2 | B2 | no binding (tested: 500 µl conditioned hybridoma medium) | ~2 | no binding | no binding | no binding
